Reference: patent US20100260668A1 (published 2010)

B1: DVD495 (bispecific antibody, human IgG1, kappa)
heavy: not shown
light: DIQMTQSSSYLSVSLGGRVTITCKASDHINNWLAWYQQKPGNAPRLLISGATSLETGVPSRFSGSGSGKDYTLSITSLQTEDVATYYCQQYWSIPLTFGAGTKLELKRTVAAPSVFIFPPDIQMTQSPSSLSASVGDRVTITCRASQDVSTAVAWYQQKPGKAPKLLIYSASFLYSGVPSRFSGSGSGTDFTLTISSLQPEDFATYYCQQSYTTPPTFGQGTKVEIKRTVAAPSVFIFPPSDEQLKSGTASVVCLLNNFYPREAKVQWKVDNALQSGNSQESVTEQDSKDSTYSLSSTLTLSKADYEKHKVYACEVTHQGLSSPVTKSFNRGEC
notes: HC linker long, LC linker long; also called DVD-Ig DVD495
B2: DVD507 (bispecific antibody, human IgG1, kappa, L234A L235A)
heavy: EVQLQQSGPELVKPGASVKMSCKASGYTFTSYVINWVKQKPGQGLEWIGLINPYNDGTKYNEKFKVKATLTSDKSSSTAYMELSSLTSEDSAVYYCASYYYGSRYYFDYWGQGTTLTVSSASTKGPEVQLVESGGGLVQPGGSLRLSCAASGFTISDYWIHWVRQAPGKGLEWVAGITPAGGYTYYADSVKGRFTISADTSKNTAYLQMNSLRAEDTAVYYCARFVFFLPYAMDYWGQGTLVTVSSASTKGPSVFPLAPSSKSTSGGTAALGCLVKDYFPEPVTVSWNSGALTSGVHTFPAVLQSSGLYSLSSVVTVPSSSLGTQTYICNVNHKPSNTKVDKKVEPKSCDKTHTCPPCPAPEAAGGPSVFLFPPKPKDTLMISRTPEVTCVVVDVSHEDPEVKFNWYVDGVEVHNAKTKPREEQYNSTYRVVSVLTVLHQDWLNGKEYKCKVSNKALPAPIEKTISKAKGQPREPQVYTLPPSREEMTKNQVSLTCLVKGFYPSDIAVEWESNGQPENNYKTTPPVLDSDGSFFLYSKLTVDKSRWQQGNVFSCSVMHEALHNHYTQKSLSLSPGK
light: DIQMTQSSSYLSVSLGGRVTITCKASDHINNWLAWYQQKPGNAPRLLISGATSLETGVPSRFSGSGSGKDYTLSITSLQTEDVATYYCQQYWSIPLTFGAGTKLELKRTVAAPSVFIFPPDIQMTQSPSSLSASVGDRVTITCRASQDVSTAVAWYQQKPGKAPKLLIYSASFLYSGVPSRFSGSGSGTDFTLTISSLQPEDFATYYCQQSYTTPPTFGQGTKVEIKRTVAAPSVFIFPPSDEQLKSGTASVVCLLNNFYPREAKVQWKVDNALQSGNSQESVTEQDSKDSTYSLSSTLTLSKADYEKHKVYACEVTHQGLSSPVTKSFNRGEC
notes: HC linker short, LC linker long; also called DVD-Ig DVD507
B3: DVD513 (bispecific antibody, human IgG1, kappa)
heavy: not shown
light: QAVVTQESALTTSPGETVTLTCRSSTGAVTTSNYANWVQEKPDHLFTGLIGGTNNRAPGVPARFSGSLIGDKAALTITGAQTEDEAIYFCALWYSNHWVFGGGTKLTVLGQPKAAPDIQMTQSPSSLSASVGDRVTITCRASQDVSTAVAWYQQKPGKAPKLLIYSASFLYSGVPSRFSGSGSGTDFTLTISSLQPEDFATYYCQQSYTTPPTFGQGTKVEIKRTVAAPSVFIFPPSDEQLKSGTASVVCLLNNFYPREAKVQWKVDNALQSGNSQESVTEQDSKDSTYSLSSTLTLSKADYEKHKVYACEVTHQGLSSPVTKSFNRGEC
notes: HC linker short, LC linker short; also called DVD-Ig DVD513
B4: DVD525 (bispecific antibody, human IgG1, kappa)
heavy: not shown
light: QAVVTQESALTTSPGETVTLTCRSSTGAVTTSNYANWVQEKPDHLFTGLIGGTNNRAPGVPARFSGSLIGDKAALTITGAQTEDEAIYFCALWYSNHWVFGGGTKLTVLGQPKAAPDIQMTQSPSSLSASVGDRVTITCRASQDVSTAVAWYQQKPGKAPKLLIYSASFLYSGVPSRFSGSGSGTDFTLTISSLQPEDFATYYCQQSYTTPPTFGQGTKVEIKRTVAAPSVFIFPPSDEQLKSGTASVVCLLNNFYPREAKVQWKVDNALQSGNSQESVTEQDSKDSTYSLSSTLTLSKADYEKHKVYACEVTHQGLSSPVTKSFNRGEC
notes: HC linker long, LC linker short; also called DVD-Ig DVD525
B5: DVD455 (bispecific antibody, human IgG1, kappa)
heavy: not shown
light: DIVMTQSPDSLAVSLGERATISCRASESVDNYGISFMKWFQQKPGQPPKLLIYAASNQGSGVPDRFSGSGSGTDFTLTISSLQAEDVAVYYCQQSKEVPWTFGGGTKVEIKRTVAAPDIQMTQSPSSLSASVGDRVTITCRASQDVSTAVAWYQQKPGKAPKLLIYSASFLYSGVPSRFSGSGSGTDFTLTISSLQPEDFATYYCQQSYTTPPTFGQGTKVEIKRTVAAPSVFIFPPSDEQLKSGTASVVCLLNNFYPREAKVQWKVDNALQSGNSQESVTEQDSKDSTYSLSSTLTLSKADYEKHKVYACEVTHQGLSSPVTKSFNRGEC
notes: HC linker long, LC linker short; also called DVD-Ig DVD455
B6: DVD472 (bispecific antibody, human IgG1, kappa)
heavy: not shown
light: DIQMTQSPSSLSASVGDRVTITCRASQDVSTAVAWYQQKPGKAPKLLIYSASFLYSGVPSRFSGSGSGTDFTLTISSLQPEDFATYYCQQSYTTPPTFGQGTKVEIKRTVAAPSVFIFPPDIQMTQSPSSLSASVGDRVTITCRASQDVSTAVAWYQQKPGKAPKLLIYSASFLYSGVPSRFSGSGSGTDFTLTISSLQPEDFATTYYCQQSYTGTVTFGQGTKVEIKRTVAAPSVFIFPPSDEQLKSGTASVVCLLNNFYPREAKVQWKVDNALQSGNSQESVTEQDSKDSTYSLSSTLTLSKADYEKHKVYACEVTHQGLSSPVTKSFNRGEC
notes: HC linker long, LC linker long; also called DVD-Ig DVD472
B7: DVD484 (bispecific antibody, human IgG1, kappa)
heavy: not shown
light: DIQMTQSPSSLSASVGDRVTITCRASQDVSTAVAWYQQKPGKAPKLLIYSASFLYSGVPSRFSGSGSGTDFTLTISSLQPEDFATYYCQQSYTTPPTFGQGTKVEIKRTVAAPSVFIFPPDIQMTQSPSSLSASVGDRVTITCRASQDVSTAVAWYQQKPGKAPKLLIYSASFLYSGVPSRFSGSGSGTDFTLTISSLQPEDFATTYYCQQSYTGTVTFGQGTKVEIKRTVAAPSVFIFPPSDEQLKSGTASVVCLLNNFYPREAKVQWKVDNALQSGNSQESVTEQDSKDSTYSLSSTLTLSKADYEKHKVYACEVTHQGLSSPVTKSFNRGEC
notes: HC linker short, LC linker long; also called DVD-Ig DVD484
B8: DVD489 (bispecific antibody, human IgG1, kappa, L234A L235A)
heavy: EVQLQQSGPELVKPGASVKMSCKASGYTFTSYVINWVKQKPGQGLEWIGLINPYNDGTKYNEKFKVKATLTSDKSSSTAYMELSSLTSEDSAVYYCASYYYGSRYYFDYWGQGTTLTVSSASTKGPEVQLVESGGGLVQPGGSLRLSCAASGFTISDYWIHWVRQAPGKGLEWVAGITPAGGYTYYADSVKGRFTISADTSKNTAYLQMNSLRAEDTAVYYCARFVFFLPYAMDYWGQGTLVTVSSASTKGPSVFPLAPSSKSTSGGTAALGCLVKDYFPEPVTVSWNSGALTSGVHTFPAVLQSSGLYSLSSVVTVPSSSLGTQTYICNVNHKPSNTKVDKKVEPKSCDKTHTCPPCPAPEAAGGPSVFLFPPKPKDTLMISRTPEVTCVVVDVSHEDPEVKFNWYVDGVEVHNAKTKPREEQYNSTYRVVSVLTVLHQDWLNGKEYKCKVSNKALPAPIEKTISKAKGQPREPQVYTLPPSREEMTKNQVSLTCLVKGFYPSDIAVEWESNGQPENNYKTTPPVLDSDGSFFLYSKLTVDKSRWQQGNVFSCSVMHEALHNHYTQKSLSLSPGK
light: DIQMTQSSSYLSVSLGGRVTITCKASDHINNWLAWYQQKPGNAPRLLISGATSLETGVPSRFSGSGSGKDYTLSITSLQTEDVATYYCQQYWSIPLTFGAGTKLELKRTVAAPDIQMTQSPSSLSASVGDRVTITCRASQDVSTAVAWYQQKPGKAPKLLIYSASFLYSGVPSRFSGSGSGTDFTLTISSLQPEDFATYYCQQSYTTPPTFGQGTKVEIKRTVAAPSVFIFPPSDEQLKSGTASVVCLLNNFYPREAKVQWKVDNALQSGNSQESVTEQDSKDSTYSLSSTLTLSKADYEKHKVYACEVTHQGLSSPVTKSFNRGEC
notes: HC linker short, LC linker short; also called DVD-Ig DVD489
B9: DVD501 (bispecific antibody, human IgG1, kappa)
heavy: not shown
light: DIQMTQSSSYLSVSLGGRVTITCKASDHINNWLAWYQQKPGNAPRLLISGATSLETGVPSRFSGSGSGKDYTLSITSLQTEDVATYYCQQYWSIPLTFGAGTKLELKRTVAAPDIQMTQSPSSLSASVGDRVTITCRASQDVSTAVAWYQQKPGKAPKLLIYSASFLYSGVPSRFSGSGSGTDFTLTISSLQPEDFATYYCQQSYTTPPTFGQGTKVEIKRTVAAPSVFIFPPSDEQLKSGTASVVCLLNNFYPREAKVQWKVDNALQSGNSQESVTEQDSKDSTYSLSSTLTLSKADYEKHKVYACEVTHQGLSSPVTKSFNRGEC
notes: HC linker long, LC linker short; also called DVD-Ig DVD501
B10: DVD519 (bispecific antibody, human IgG1, kappa, lambda)
heavy: not shown
light: QAVVTQESALTTSPGETVTLTCRSSTGAVTTSNYANWVQEKPDHLFTGLIGGTNNRAPGVPARFSGSLIGDKAALTITGAQTEDEAIYFCALWYSNHWVFGGGTKLTVLGQPKAAPSVTLFPPDIQMTQSPSSLSASVGDRVTITCRASQDVSTAVAWYQQKPGKAPKLLIYSASFLYSGVPSRFSGSGSGTDFTLTISSLQPEDFATYYCQQSYTTPPTFGQGTKVEIKRTVAAPSVFIFPPSDEQLKSGTASVVCLLNNFYPREAKVQWKVDNALQSGNSQESVTEQDSKDSTYSLSSTLTLSKADYEKHKVYACEVTHQGLSSPVTKSFNRGEC
notes: HC linker long, LC linker long; also called DVD-Ig DVD519
B11: DVD531 (bispecific antibody, human IgG1, kappa, lambda)
heavy: not shown
light: QAVVTQESALTTSPGETVTLTCRSSTGAVTTSNYANWVQEKPDHLFTGLIGGTNNRAPGVPARFSGSLIGDKAALTITGAQTEDEAIYFCALWYSNHWVFGGGTKLTVLGQPKAAPSVTLFPPDIQMTQSPSSLSASVGDRVTITCRASQDVSTAVAWYQQKPGKAPKLLIYSASFLYSGVPSRFSGSGSGTDFTLTISSLQPEDFATYYCQQSYTTPPTFGQGTKVEIKRTVAAPSVFIFPPSDEQLKSGTASVVCLLNNFYPREAKVQWKVDNALQSGNSQESVTEQDSKDSTYSLSSTLTLSKADYEKHKVYACEVTHQGLSSPVTKSFNRGEC
notes: HC linker short, LC linker long; also called DVD-Ig DVD531
B12: DVD466 (bispecific antibody, human IgG1, kappa)
heavy: not shown
light: DIQMTQSPSSLSASVGDRVTITCRASQDVSTAVAWYQQKPGKAPKLLIYSASFLYSGVPSRFSGSGSGTDFTLTISSLQPEDFATYYCQQSYTTPPTFGQGTKVEIKRTVAAPDIQMTQSPSSLSASVGDRVTITCRASQDVSTAVAWYQQKPGKAPKLLIYSASFLYSGVPSRFSGSGSGTDFTLTISSLQPEDFATTYYCQQSYTGTVTFGQGTKVEIKRTVAAPSVFIFPPSDEQLKSGTASVVCLLNNFYPREAKVQWKVDNALQSGNSQESVTEQDSKDSTYSLSSTLTLSKADYEKHKVYACEVTHQGLSSPVTKSFNRGEC
notes: HC linker short, LC linker short; also called DVD-Ig DVD466
B13: DVD478 (bispecific antibody, human IgG1, kappa)
heavy: not shown
light: DIQMTQSPSSLSASVGDRVTITCRASQDVSTAVAWYQQKPGKAPKLLIYSASFLYSGVPSRFSGSGSGTDFTLTISSLQPEDFATYYCQQSYTTPPTFGQGTKVEIKRTVAAPDIQMTQSPSSLSASVGDRVTITCRASQDVSTAVAWYQQKPGKAPKLLIYSASFLYSGVPSRFSGSGSGTDFTLTISSLQPEDFATTYYCQQSYTGTVTFGQGTKVEIKRTVAAPSVFIFPPSDEQLKSGTASVVCLLNNFYPREAKVQWKVDNALQSGNSQESVTEQDSKDSTYSLSSTLTLSKADYEKHKVYACEVTHQGLSSPVTKSFNRGEC
notes: HC linker long, LC linker short; also called DVD-Ig DVD478
B14: DVD444 (bispecific antibody, human IgG1, kappa)
heavy: not shown
light: DIQMTQSPSSLSASVGDRVTITCRASQDVSTAVAWYQQKPGKAPKLLIYSASFLYSGVPSRFSGSGSGTDFTLTISSLQPEDFATYYCQQSYTTPPTFGQGTKVEIKRTVAAPDIVMTQSPDSLAVSLGERATISCRASESVDNYGISFMKWFQQKPGQPPKLLIYAASNQGSGVPDRFSGSGSGTDFTLTISSLQAEDVAVYYCQQSKEVPWTFGGGTKVEIKRTVAAPSVFIFPPSDEQLKSGTASVVCLLNNFYPREAKVQWKVDNALQSGNSQESVTEQDSKDSTYSLSSTLTLSKADYEKHKVYACEVTHQGLSSPVTKSFNRGEC
notes: HC linker short, LC linker short; also called DVD-Ig DVD444
B15: DVD461 (bispecific antibody, human IgG1, kappa)
heavy: not shown
light: DIVMTQSPDSLAVSLGERATISCRASESVDNYGISFMKWFQQKPGQPPKLLIYAASNQGSGVPDRFSGSGSGTDFTLTISSLQAEDVAVYYCQQSKEVPWTFGGGTKVEIKRTVAAPSVFIFPPDIQMTQSPSSLSASVGDRVTITCRASQDVSTAVAWYQQKPGKAPKLLIYSASFLYSGVPSRFSGSGSGTDFTLTISSLQPEDFATYYCQQSYTTPPTFGQGTKVEIKRTVAAPSVFIFPPSDEQLKSGTASVVCLLNNFYPREAKVQWKVDNALQSGNSQESVTEQDSKDSTYSLSSTLTLSKADYEKHKVYACEVTHQGLSSPVTKSFNRGEC
notes: HC linker short, LC linker long; also called DVD-Ig DVD461

Target: T1, DLL4 ECD His tag (UniProt Q9NR61 27-529, limits assumed)
T1 construct: extracellular domain; also called DLL ECD His tag
Assay: SPR (Biacore), DVD-Ig captured, DLL4 as analyte

| Kd | koff | kon | Binder |
| --- | --- | --- | --- |
| 0.263 nM | 7.91e-05 s⁻¹ | 301000 M⁻¹ s⁻¹ | B1 |
| 0.265 nM | 7.16e-05 s⁻¹ | 270000 M⁻¹ s⁻¹ | B2 |
| 2.5 nM | 0.000677 s⁻¹ | 271000 M⁻¹ s⁻¹ | B3 |
| 2.57 nM | 0.00122 s⁻¹ | 475000 M⁻¹ s⁻¹ | B4 |
| 4.7 nM | 0.000604 s⁻¹ | 129000 M⁻¹ s⁻¹ | B5 |
| 0.881 nM | 8.64e-05 s⁻¹ | 98000 M⁻¹ s⁻¹ | B6 |
| 2.96 nM | 0.000295 s⁻¹ | 99700 M⁻¹ s⁻¹ | B7 |
| 0.283 nM | 8.38e-05 s⁻¹ | 296000 M⁻¹ s⁻¹ | B8 |
| 0.302 nM | 8.14e-05 s⁻¹ | 270000 M⁻¹ s⁻¹ | B9 |
| 2.83 nM | 0.000472 s⁻¹ | 167000 M⁻¹ s⁻¹ | B10 |
| 3.47 nM | 0.000858 s⁻¹ | 248000 M⁻¹ s⁻¹ | B11 |
| 1.25 nM | 0.000139 s⁻¹ | 111000 M⁻¹ s⁻¹ | B12 |
| 2.22 nM | 0.000167 s⁻¹ | 75200 M⁻¹ s⁻¹ | B13 |
| 2.37 nM | 0.00034 s⁻¹ | 143000 M⁻¹ s⁻¹ | B14 |
| 4.69 nM | 0.000538 s⁻¹ | 115000 M⁻¹ s⁻¹ | B15 |
